Assay results taken from publication PMC3101595 (The Journal of Cell Biology, 2010).

T1: 6His-Flag-DIAP1 (Drosophila, UniProt Q24306 1-438)
T1 sequence (looked up): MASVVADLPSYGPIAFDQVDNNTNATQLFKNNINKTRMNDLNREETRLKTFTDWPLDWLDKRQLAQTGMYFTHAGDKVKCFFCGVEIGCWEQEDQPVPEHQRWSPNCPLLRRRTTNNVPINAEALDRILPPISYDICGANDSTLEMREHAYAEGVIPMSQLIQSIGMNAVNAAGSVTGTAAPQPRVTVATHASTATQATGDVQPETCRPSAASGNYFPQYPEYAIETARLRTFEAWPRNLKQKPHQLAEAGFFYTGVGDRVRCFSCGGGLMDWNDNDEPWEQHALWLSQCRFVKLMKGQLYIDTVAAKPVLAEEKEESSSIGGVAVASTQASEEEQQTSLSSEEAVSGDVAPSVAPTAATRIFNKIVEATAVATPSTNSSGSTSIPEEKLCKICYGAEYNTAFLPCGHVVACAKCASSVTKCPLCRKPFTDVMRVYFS


What was measured:
[1] = biological target: the molecule itself; assay: cross-linking
[2] = biological target: T1, 6His-Flag-DIAP1; assay: co-IP

| binding result [2] | Binder | binding result [1] |
| --- | --- | --- |
|  | Rpr-His6 (natural protein, Drosophila, UniProt Q24475 1-65, looked up) MAVAFYIPDQATLLREAEQKEQQILRLRESQWRFLATVVLETLRQYTSCHPKTGRKSGKYRKPSQ | binds |
| binds | HidΔMTS-His6 (domain or fragment, Drosophila, UniProt Q24106 1-386, looked up) MAVPFYLPEGGADDVASSSSGASGNSSPHNHPLPSSASSSVSSSGVSSASASSASSSSSASSDGASSAASQSPNTTTSSATQTPMQSPLPTDQVLYALYEWVRMYQSQQSAPQIFQYPPPSPSCNFTGGDVFFPHGHPNPNSNPHPRTPRTSVSFSSGEEYNFFRQQQPQPHPSYPAPSTPQPMPPQSAPPMHCSHSYPQQSAHMMPHHSAPFGMGGTYYAGYTPPPTPNTASAGTSSSSAAFGWHGHPHSPFTSTSTPLSAPVAPKMRLQRSQSDAARRKRLTSTGEDEREYQSDHEATWDEFGDRYDNFTAGRERLQEFNGRIPPRKKKSSNSHSSSSNNPVCHTDSQPGGTSQAESGAIHGHISQQRQVERERQKAKAEKKKP | binds |
